The source of these data is patent US8633156B2, “Insulin derivatives having an extremely delayed time-action profile” (Sanofi-Aventis Deutschland GmbH, priority 2008, dated 2014).

Data set [1] concerns healthy male normal glycemic Wistar rats. Put plainly: Blood glucose-lowering effect of insulin analogues in rats. Format: in vivo, rat. To be noted: dose 9 nmol/kg s.c., n=8, blood glucose up to eight hours after injection.
Method: In order to test the insulin derivatives of the invention for their biopharmacological and physicochemical properties, a solution of the compounds was prepared as follows: the insulin derivative of the invention was dissolved with a target concentration of 240±5 μM in 1 mM hydrochloric acid with 80 μg/mL zinc (as zinc chloride). For this purpose, initially an amount of the freeze-dried material which is about 30% higher than required on the basis of the molecular weight and the desired concentration was weighed out. The concentration present was then determined by analytical HPLC and the solution was subsequently made up to the volume necessary to achieve the target concentration with 5 mM hydrochloric acid with 80 μg/mL zinc. If necessary, the pH was readjusted to 3.5±0.1. After the final analysis by HPLC to verify the target concentration of 240±5 μM, the finished solution was transferred by means of a syringe with a 0.2 μm filter attachment into a sterile vial which was closed with a septum and a crimped cap. […] Blood samples are taken from the animals immediately before the injection of the insulin analogue and at regular intervals up to eight hours after the injection, and the blood glucose content therein is determined.
The conditions of data set [2]: from Kohn et al., cited from earlier work.

Regarding human insulin, the hypoglycemic effect result in data set [1] is recorded as “hypoglycemic effect”. The “isoelectric point (pl)” value in data set [2] was 5.6.

Regarding “Arg (A0), Gly (A21), Arg (B31), Arg (B32) human insulin [Compound 18]”, in data set [2] (calculated), the calculated pl is reported as 7.58. For the same substance, the experimentally determined pl in data set [2] (experimentally determined) is 7.3.
